Molecular target: neurogenic locus notch homolog protein 1 (NOTCH1) (UniProt P46531 19-2555, limits assumed)
Assay: large-scale immunoaffinity purification and LC-MS analysis

Sequence of neurogenic locus notch homolog protein 1 (NOTCH1) (P46531 19-2555 limits assumed): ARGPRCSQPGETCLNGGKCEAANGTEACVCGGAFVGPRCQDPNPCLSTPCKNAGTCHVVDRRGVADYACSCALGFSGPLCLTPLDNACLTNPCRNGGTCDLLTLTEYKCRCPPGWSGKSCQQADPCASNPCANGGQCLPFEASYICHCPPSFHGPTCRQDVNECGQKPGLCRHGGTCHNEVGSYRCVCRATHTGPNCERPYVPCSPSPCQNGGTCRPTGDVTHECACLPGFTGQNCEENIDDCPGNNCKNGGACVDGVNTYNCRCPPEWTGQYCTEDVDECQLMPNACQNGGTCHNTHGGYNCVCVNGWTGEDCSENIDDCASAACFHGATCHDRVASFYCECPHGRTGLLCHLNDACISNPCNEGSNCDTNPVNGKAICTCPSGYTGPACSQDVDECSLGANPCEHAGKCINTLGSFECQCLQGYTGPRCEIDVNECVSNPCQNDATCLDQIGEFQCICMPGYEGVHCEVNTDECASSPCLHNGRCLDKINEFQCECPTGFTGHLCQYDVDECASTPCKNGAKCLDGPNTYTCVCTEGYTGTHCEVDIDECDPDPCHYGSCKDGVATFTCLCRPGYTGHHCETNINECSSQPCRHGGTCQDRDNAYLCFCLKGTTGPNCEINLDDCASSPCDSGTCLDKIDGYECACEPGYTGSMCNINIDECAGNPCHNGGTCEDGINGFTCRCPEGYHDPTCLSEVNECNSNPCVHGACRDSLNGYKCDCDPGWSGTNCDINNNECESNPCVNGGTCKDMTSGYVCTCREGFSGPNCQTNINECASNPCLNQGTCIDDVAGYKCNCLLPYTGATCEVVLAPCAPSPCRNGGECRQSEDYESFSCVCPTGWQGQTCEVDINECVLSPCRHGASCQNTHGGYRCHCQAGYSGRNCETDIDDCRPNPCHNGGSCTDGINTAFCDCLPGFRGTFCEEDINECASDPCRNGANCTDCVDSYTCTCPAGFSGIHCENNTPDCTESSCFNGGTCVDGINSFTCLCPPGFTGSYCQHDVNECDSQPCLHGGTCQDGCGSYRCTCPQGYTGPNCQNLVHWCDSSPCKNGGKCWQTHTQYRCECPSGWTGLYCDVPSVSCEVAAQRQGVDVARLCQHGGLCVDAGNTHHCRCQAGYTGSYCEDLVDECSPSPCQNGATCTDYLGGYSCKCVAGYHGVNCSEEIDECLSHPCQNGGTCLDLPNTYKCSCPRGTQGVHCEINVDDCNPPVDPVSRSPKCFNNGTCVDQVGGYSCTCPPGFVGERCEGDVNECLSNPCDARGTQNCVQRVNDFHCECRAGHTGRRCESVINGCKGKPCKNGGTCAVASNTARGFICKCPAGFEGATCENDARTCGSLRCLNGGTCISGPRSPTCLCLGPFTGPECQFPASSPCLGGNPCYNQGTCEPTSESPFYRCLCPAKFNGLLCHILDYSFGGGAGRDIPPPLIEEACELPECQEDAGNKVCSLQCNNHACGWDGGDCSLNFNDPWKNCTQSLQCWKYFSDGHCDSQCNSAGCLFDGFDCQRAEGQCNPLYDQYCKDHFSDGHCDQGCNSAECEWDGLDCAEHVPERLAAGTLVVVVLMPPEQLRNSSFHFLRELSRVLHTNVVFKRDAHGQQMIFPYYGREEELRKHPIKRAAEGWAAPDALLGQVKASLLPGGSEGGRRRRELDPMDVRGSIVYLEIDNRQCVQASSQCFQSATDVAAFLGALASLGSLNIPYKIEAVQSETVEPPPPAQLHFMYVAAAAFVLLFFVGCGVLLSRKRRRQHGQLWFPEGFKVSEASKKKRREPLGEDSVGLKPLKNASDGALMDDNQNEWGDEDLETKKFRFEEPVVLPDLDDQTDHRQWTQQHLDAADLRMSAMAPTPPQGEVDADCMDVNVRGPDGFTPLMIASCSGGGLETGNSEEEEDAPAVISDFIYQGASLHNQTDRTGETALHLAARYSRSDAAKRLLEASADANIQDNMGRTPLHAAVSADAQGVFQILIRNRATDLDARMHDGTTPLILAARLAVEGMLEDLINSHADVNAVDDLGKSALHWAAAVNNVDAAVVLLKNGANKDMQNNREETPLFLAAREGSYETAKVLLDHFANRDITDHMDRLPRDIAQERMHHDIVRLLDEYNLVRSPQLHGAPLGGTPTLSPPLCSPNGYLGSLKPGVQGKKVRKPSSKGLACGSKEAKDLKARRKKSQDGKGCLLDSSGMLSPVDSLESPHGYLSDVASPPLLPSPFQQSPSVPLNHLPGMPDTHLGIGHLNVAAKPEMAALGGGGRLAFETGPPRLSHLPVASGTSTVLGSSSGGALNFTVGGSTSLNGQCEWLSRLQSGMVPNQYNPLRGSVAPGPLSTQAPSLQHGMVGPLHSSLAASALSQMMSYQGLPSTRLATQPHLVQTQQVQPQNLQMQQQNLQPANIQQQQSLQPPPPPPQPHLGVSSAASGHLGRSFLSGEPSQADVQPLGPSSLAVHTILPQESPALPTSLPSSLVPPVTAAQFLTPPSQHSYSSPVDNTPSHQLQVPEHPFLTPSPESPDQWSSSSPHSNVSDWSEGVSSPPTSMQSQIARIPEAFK

B1: Tre2-Bub2-Cdc16 domain family member 15 (TBC1D15) (other, UniProt Q8TC07 1-691, looked up)
chain: MAAAGVVSGKIIYEQEGVYIHSSCGKTNDQDGLISGILRVLEKDAEVIVDWRPLDDALDSSSILYARKDSSSVVEWTQAPKERGHRGSEHLNSYEAEWDMVNTVSFKRKPHTNGDAPSHRNGKSKWSFLFSLTDLKSIKQNKEGMGWSYLVFCLKDDVVLPALHFHQGDSKLLIESLEKYVVLCESPQDKRTLLVNCQNKSLSQSFENLLDEPAYGLIQAGLLDRRKLLWAIHHWKKIKKDPYTATMIGFSKVTNYIFDSLRGSDPSTHQRPPSEMADFLSDAIPGLKINQQEEPGFEVITRIDLGERPVVQRREPVSLEEWTKNIDSEGRILNVDNMKQMIFRGGLSHALRKQAWKFLLGYFPWDSTKEERTQLQKQKTDEYFRMKLQWKSISQEQEKRNSRLRDYRSLIEKDVNRTDRTNKFYEGQDNPGLILLHDILMTYCMYDFDLGYVQGMSDLLSPLLYVMENEVDAFWCFASYMDQMHQNFEEQMQGMKTQLIQLSTLLRLLDSGFCSYLESQDSGYLYFCFRWLLIRFKREFSFLDILRLWEVMWTELPCTNFHLLLCCAILESEKQQIMEKHYGFNEILKHINELSMKIDVEDILCKAEAISLQMVKCKELPQAVCEILGLQGSEVTTPDSDVGEDENVVMTPCPTSAFQSNALPTLSASGARNDSPTQIPVSSDVCRLTPA
notes: TBC1D15 as present in cell lysates (co-IP); also called TBC1 domain family member 15
binding result: binds
